Reference: patent publication EP4796567A2 (Nepenthe Bioscience, LLC, dated 2026)

T1: CD79 (UniProt P11912 33-143; P40259 29-159, limits assumed)
T1 construct: also called CD79 antigen; soluble biotinylated CD79 antigen
T1 sequence (looked up) 1: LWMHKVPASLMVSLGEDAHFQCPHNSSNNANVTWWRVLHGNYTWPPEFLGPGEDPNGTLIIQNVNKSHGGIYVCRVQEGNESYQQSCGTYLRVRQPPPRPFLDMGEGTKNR
T1 sequence (looked up) 2: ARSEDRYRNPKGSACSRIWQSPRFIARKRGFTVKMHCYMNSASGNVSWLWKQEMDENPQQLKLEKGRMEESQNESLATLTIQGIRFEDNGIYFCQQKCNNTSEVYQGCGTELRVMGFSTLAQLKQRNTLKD


biological target: T1, CD79; assay: binding kinetics to CD79; method not named (antibody is the 'Loading Sample')

Kd [nM] | koff [s⁻¹] | kon [M⁻¹ s⁻¹] | Binder
140 | 0.0086 | 61000 | humanized anti-CD79 antibody H3L2 (antibody, V domains shown) VH: QVQLVQSGAEVKKPGASVKVSCKASGYAFSYSWMNWVRQAPGQGLEWIGRIYPENGDTNYNGKFKGRVTLTADKSISTAYMELSRLRSDDTAVYYCARWVYGYPHFDYWGQGTLVTVSS VL: DVVMTQSPLSLPVTLGQPASISCKSSQSLLDSDGKTYLNWLQQRPGQSPRRLIYLVSKLDSGVPDRFSGSGSGTDFTLKISRVEAEDVGVYYCWQGTHFPFTFGGGTKVEIK
49 | 0.004 | 82000 | humanized anti-CD79 antibody H1L3 (antibody, V domains shown) VH: QVQLVQSGAEVKKPGASVKVSCKASGYAFSYSWMNWVRQAPGQGLEWMGRIYPENGDTNYNGKFKGRVTMTRDTSISTAYMELSRLRSDDTAVYYCARWVYGYPHFDYWGQGTLVTVSS VL: DVVMTQSPLSLPVTLGQPASISCKSSQSLLDSDGKTYLNWLQQRPGQSPKRLIYLVSKLDSGVPDRFSGSGSGTDFTLKISRVEAEDVGVYYCWQGTHFPFTFGGGTKVEIK
130 | 0.011 | 79000 | humanized anti-CD79 antibody H3L3 (antibody, V domains shown) VH: QVQLVQSGAEVKKPGASVKVSCKASGYAFSYSWMNWVRQAPGQGLEWIGRIYPENGDTNYNGKFKGRVTLTADKSISTAYMELSRLRSDDTAVYYCARWVYGYPHFDYWGQGTLVTVSS VL: DVVMTQSPLSLPVTLGQPASISCKSSQSLLDSDGKTYLNWLQQRPGQSPKRLIYLVSKLDSGVPDRFSGSGSGTDFTLKISRVEAEDVGVYYCWQGTHFPFTFGGGTKVEIK
46 | 0.0046 | 100000 | humanized anti-CD79 antibody H2L2 (antibody, V domains shown) VH: QVQLVQSGAEVKKPGASVKVSCKASGYAFSYSWMNWVRQAPGQGLEWMGRIYPENGDTNYNGKFKGRVTMTADTSISTAYMELSRLRSDDTAVYYCARWVYGYPHFDYWGQGTLVTVSS VL: DVVMTQSPLSLPVTLGQPASISCKSSQSLLDSDGKTYLNWLQQRPGQSPRRLIYLVSKLDSGVPDRFSGSGSGTDFTLKISRVEAEDVGVYYCWQGTHFPFTFGGGTKVEIK
90 | 0.0071 | 79000 | humanized anti-CD79 antibody H2L1 (antibody, V domains shown) VH: QVQLVQSGAEVKKPGASVKVSCKASGYAFSYSWMNWVRQAPGQGLEWMGRIYPENGDTNYNGKFKGRVTMTADTSISTAYMELSRLRSDDTAVYYCARWVYGYPHFDYWGQGTLVTVSS VL: DVVMTQSPLSLPVTLGQPASISCKSSQSLLDSDGKTYLNWFQQRPGQSPRRLIYLVSKLDSGVPDRFSGSGSGTDFTLKISRVEAEDVGVYYCWQGTHFPFTFGGGTKVEIK
290 | 0.013 | 43000 | humanized anti-CD79 antibody H3L1 (antibody, V domains shown) VH: QVQLVQSGAEVKKPGASVKVSCKASGYAFSYSWMNWVRQAPGQGLEWIGRIYPENGDTNYNGKFKGRVTLTADKSISTAYMELSRLRSDDTAVYYCARWVYGYPHFDYWGQGTLVTVSS VL: DVVMTQSPLSLPVTLGQPASISCKSSQSLLDSDGKTYLNWFQQRPGQSPRRLIYLVSKLDSGVPDRFSGSGSGTDFTLKISRVEAEDVGVYYCWQGTHFPFTFGGGTKVEIK
61 | 0.0051 | 84000 | humanized anti-CD79 antibody H2L3 (antibody, V domains shown) VH: QVQLVQSGAEVKKPGASVKVSCKASGYAFSYSWMNWVRQAPGQGLEWMGRIYPENGDTNYNGKFKGRVTMTADTSISTAYMELSRLRSDDTAVYYCARWVYGYPHFDYWGQGTLVTVSS VL: DVVMTQSPLSLPVTLGQPASISCKSSQSLLDSDGKTYLNWLQQRPGQSPKRLIYLVSKLDSGVPDRFSGSGSGTDFTLKISRVEAEDVGVYYCWQGTHFPFTFGGGTKVEIK

The next lines start with the binder.

Binder | Kd [nM] | koff [s⁻¹] | kon [M⁻¹ s⁻¹]
humanized anti-CD79 antibody H1L1 (antibody, V domains shown) VH: QVQLVQSGAEVKKPGASVKVSCKASGYAFSYSWMNWVRQAPGQGLEWMGRIYPENGDTNYNGKFKGRVTMTRDTSISTAYMELSRLRSDDTAVYYCARWVYGYPHFDYWGQGTLVTVSS VL: DVVMTQSPLSLPVTLGQPASISCKSSQSLLDSDGKTYLNWFQQRPGQSPRRLIYLVSKLDSGVPDRFSGSGSGTDFTLKISRVEAEDVGVYYCWQGTHFPFTFGGGTKVEIK | 59 | 0.0054 | 92000
chimeric anti-CD79 antibody HcLc (antibody, V domains shown, Mouse VH fused to human IgG2 CH1, CH2 and CH3 domains; mouse VL fused to a human kappa CL domain) VH: QVQLQQSGPELVKPGASVKISCKASGYAFSYSWMNWVKQRPGKGLEWIGRIYPENGDTNYNGKFKGKVTLTADKSSSTAYMQLSSLTSEDSAVYFCARWVYGYPHFDYWGQGTTLTVSS VL: not shown | 60 | 0.0056 | 93000

biological target: T1, CD79; assay: antigen binding kinetics; method not named (antibody is the 'Loading Sample')

Kd [nM] | koff [s⁻¹] | kon [M⁻¹ s⁻¹] | Binder
< 0.001 | < 1e-07 | 55800 | engineered anti-CD79 antibody LB630/519 (antibody, V domains shown, First NG motif of VH CDR2 engineered to NS; Produced in 293 cells by transient transfection; also called LB630/LB519) VH: QVQLVQSGAEVKKPGASVKVSCKASGYAFSYSWMNWVRQAPGQGLEWMGRIYPESGDTNYNGKFKGRVTMTRDTSISTAYMELSRLRSDDTAVYYCARWVYGLPHFDYWGQGTLVTVSS VL: DVVMTQSPLSLPVTLGQPASISCKSSQSLLDSDGKTYLNWLQQRPGQSPRRLIYLVSKLDSGVPDRFSGSGSGTDFTLKISRVEAEDVGVYYCWQGTHLPFTFGGGTKVEIK
1.04 | 6.1e-05 | 58600 | engineered anti-CD79 antibody LB631/519 (antibody, V domains shown, Second NG motif of VH CDR2 engineered to NA; Produced in 293 cells by transient transfection; also called LB631/LB519) VH: QVQLVQSGAEVKKPGASVKVSCKASGYAFSYSWMNWVRQAPGQGLEWMGRIYPENGDTNYAGKFKGRVTMTRDTSISTAYMELSRLRSDDTAVYYCARWVYGLPHFDYWGQGTLVTVSS VL: DVVMTQSPLSLPVTLGQPASISCKSSQSLLDSDGKTYLNWLQQRPGQSPRRLIYLVSKLDSGVPDRFSGSGSGTDFTLKISRVEAEDVGVYYCWQGTHLPFTFGGGTKVEIK

biological target: T1, CD79; assay: binding kinetics of full length IgG to CD79; method not named (antibody is the 'Loading Sample')

Kd [nM] | koff [s⁻¹] | kon [M⁻¹ s⁻¹] | Binder
3.64 | 0.000332 | 91200 | affinity matured anti-CD79 antibody LB495/518 (antibody, V domains shown, Full length IgG produced from 293 cells; also called LB495/LB518) VH: QVQLVQSGAEVKKPGASVKVSCKASGYAFSYSWMNWVRQAPGQGLEWMGRIYPENGDTNYNGKFKGRVTMTRDTSISTAYMELSRLRSDDTAVYYCARWVYGYPHFDYWGQGTLVTVSS VL: DVVMTQSPLSLPVTLGQPASISCKSSQSLLDSDGKTYLNWLQQRPGQSPRRLIYLVSKLDSGVPDRFSGSGSGTDFTLKISRVEAEDVGVYYCWQGTHIPFTFGGGTKVEIK
3.76 | 0.000374 | 99600 | affinity matured anti-CD79 antibody LB495/520 (antibody, V domains shown, Full length IgG produced from 293 cells; also called LB495/LB520) VH: QVQLVQSGAEVKKPGASVKVSCKASGYAFSYSWMNWVRQAPGQGLEWMGRIYPENGDTNYNGKFKGRVTMTRDTSISTAYMELSRLRSDDTAVYYCARWVYGYPHFDYWGQGTLVTVSS VL: DVVMTQSPLSLPVTLGQPASISCKSSQSLLDSDGKTYLNWLQQRPGQSPRRLIYLVSKLDSGVPDRFSGSGSGTDFTLKISRVEAEDVGVYYCWQGTHRPFTFGGGTKVEIK
2.4 | 0.000234 | 97800 | affinity matured anti-CD79 antibody LB517/520 (antibody, V domains shown, Full length IgG produced from 293 cells; also called LB517/LB520) VH: QVQLVQSGAEVKKPGASVKVSCKASGYAFSYSWMNWVRQAPGQGLEWMGRIYPENGDTNYNGKFKGRVTMTRDTSISTAYMELSRLRSDDTAVYYCARWVYGLPHFDYWGQGTLVTVSS VL: DVVMTQSPLSLPVTLGQPASISCKSSQSLLDSDGKTYLNWLQQRPGQSPRRLIYLVSKLDSGVPDRFSGSGSGTDFTLKISRVEAEDVGVYYCWQGTHRPFTFGGGTKVEIK
3.55 | 0.000311 | 87500 | affinity matured anti-CD79 antibody LB517/PRI47 (antibody, V domains shown, Full length IgG produced from 293 cells) VH: QVQLVQSGAEVKKPGASVKVSCKASGYAFSYSWMNWVRQAPGQGLEWMGRIYPENGDTNYNGKFKGRVTMTRDTSISTAYMELSRLRSDDTAVYYCARWVYGLPHFDYWGQGTLVTVSS VL: DVVMTQSPLSLPVTLGQPASISCKSSQSLLDSDGKTYLNWLQQRPGQSPRRLIYLVSKLDSGVPDRFSGSGSGTDFTLKISRVEAEDVGVYYCWQGTHFPFTFGGGTKVEIK
3.65 | 0.000362 | 99100 | affinity matured anti-CD79 antibody LB495/521 (antibody, V domains shown, Full length IgG produced from 293 cells; also called LB495/LB521) VH: QVQLVQSGAEVKKPGASVKVSCKASGYAFSYSWMNWVRQAPGQGLEWMGRIYPENGDTNYNGKFKGRVTMTRDTSISTAYMELSRLRSDDTAVYYCARWVYGYPHFDYWGQGTLVTVSS VL: DVVMTQSPLSLPVTLGQPASISCKSSQSLLDSDGKTYLNWLQQRPGQSPRRLIYLVSKLDSGVPDRFSGSGSGTDFTLKISRVEAEDVGVYYCWQGTHVPFTFGGGTKVEIK
3.14 | 0.000252 | 80300 | affinity matured anti-CD79 antibody LB495/519 (antibody, V domains shown, Full length IgG produced from 293 cells; also called LB495/LB519) VH: QVQLVQSGAEVKKPGASVKVSCKASGYAFSYSWMNWVRQAPGQGLEWMGRIYPENGDTNYNGKFKGRVTMTRDTSISTAYMELSRLRSDDTAVYYCARWVYGYPHFDYWGQGTLVTVSS VL: DVVMTQSPLSLPVTLGQPASISCKSSQSLLDSDGKTYLNWLQQRPGQSPRRLIYLVSKLDSGVPDRFSGSGSGTDFTLKISRVEAEDVGVYYCWQGTHLPFTFGGGTKVEIK
2.24 | 0.000199 | 88500 | affinity matured anti-CD79 antibody LB517/518 (antibody, V domains shown, Full length IgG produced from 293 cells; also called LB517/LB518) VH: QVQLVQSGAEVKKPGASVKVSCKASGYAFSYSWMNWVRQAPGQGLEWMGRIYPENGDTNYNGKFKGRVTMTRDTSISTAYMELSRLRSDDTAVYYCARWVYGLPHFDYWGQGTLVTVSS VL: DVVMTQSPLSLPVTLGQPASISCKSSQSLLDSDGKTYLNWLQQRPGQSPRRLIYLVSKLDSGVPDRFSGSGSGTDFTLKISRVEAEDVGVYYCWQGTHIPFTFGGGTKVEIK
2.3 | 0.000201 | 87500 | affinity matured anti-CD79 antibody LB517/521 (antibody, V domains shown, Full length IgG produced from 293 cells; also called LB517/LB521) VH: QVQLVQSGAEVKKPGASVKVSCKASGYAFSYSWMNWVRQAPGQGLEWMGRIYPENGDTNYNGKFKGRVTMTRDTSISTAYMELSRLRSDDTAVYYCARWVYGLPHFDYWGQGTLVTVSS VL: DVVMTQSPLSLPVTLGQPASISCKSSQSLLDSDGKTYLNWLQQRPGQSPRRLIYLVSKLDSGVPDRFSGSGSGTDFTLKISRVEAEDVGVYYCWQGTHVPFTFGGGTKVEIK
